Test results as given in patent US20050118674A1, “Engineering of Controlled Deamidation Rates in Peptides, Proteins, and Similar Structures” (priority 2003, published 2005).
Where no end group is shown, it is not given here.

Test: First-order nonenzymatic deamidation of pentapeptides in Tris buffer
Assay type: physicochemical
Details: pH 7.4, 37.0° C., 0.15 M Tris HCl; Asn pentapeptides
In short: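 Pentapeptides containing Asn or Gln in varied flanking sequences incubated at 37° C., pH 7.4, 0.15 M Tris buffer; first-order deamidation rates measured. Some Asn values estimated from remaining data; many Gln values derived from surface fitting rather than measured.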

First: GlyAmCysAsnLysGly (CNKG; not fully specified (N-terminus); printed as GlyAmCysAsnLysGly)
Second: GlyThrAsnSerGly (GTNSG; printed: GlyThrAsnSerGly)
The “First-Order Deamidation Halftimes of GlyXxxAsnYyyGly” value of the first is higher: 48.9 days for the first, 17.1 days for the second.

First: GlyAlaAsnPheGly (GANFG; printed: GlyAlaAsnPheGly)
Second: GlyThrAsnProGly (GTNPG; printed: GlyThrAsnProGly)
The “First-Order Deamidation Halftimes of GlyXxxAsnYyyGly” value of the first is lower: 65.6 days for the first, 6290 days for the second.

Compared with “GlyValAsnIleGly (GVNIG; printed: GlyValAsnIleGly)”, GlyAmCysAsnAmCysGly is lower in “First-Order Deamidation Halftimes of GlyXxxAsnYyyGly” value: 366 days for the first, 39.3 days for the second.

Compared with “GlyGlyAsnTrpGly (GGNWG; printed: GlyGlyAsnTrpGly)”, GlyTyrAsnAmCysGly is lower in “First-Order Deamidation Halftimes of GlyXxxAsnYyyGly” value: 77.1 days for the first, 33.3 days for the second.

Going from “GlyPheAsnHisGly (GFNHG; printed: GlyPheAsnHisGly)” to “GlyGluAsnCysGly (GENCG; printed: GlyGluAsnCysGly)”, the “First-Order Deamidation Halftimes of GlyXxxAsnYyyGly” value rises from 10.2 days to 44.2 days.

Compared with “GlyAlaAsnArgGly (GANRG; printed: GlyAlaAsnArgGly)”, “GlyLeuAsnArgGly (GLNRG; printed: GlyLeuAsnArgGly)” is lower in “First-Order Deamidation Halftimes of GlyXxxAsnYyyGly” value: 62.4 days for the first, 62.1 days for the second.

First: GlyGlyAsnAmCysGly
Second: GlySerAsnAmCysGly
The “First-Order Deamidation Halftimes of GlyXxxAsnYyyGly” value of the first is lower: 27.6 days for the first, 41.3 days for the second.

Compared with GlyThrAsnAmCysGly, “GlyGlyAsnTyrGly (GGNYG; printed: GlyGlyAsnTyrGly)” is higher in “First-Order Deamidation Halftimes of GlyXxxAsnYyyGly” value: 34.4 days for the first, 63.6 days for the second.

First: GlyCysAsnTyrGly (GCNYG; printed: GlyCysAsnTyrGly)
Second: GlyHisAsnValGly (GHNVG; printed: GlyHisAsnValGly)
The “First-Order Deamidation Halftimes of GlyXxxAsnYyyGly” value of the first is lower: 83.9 days for the first, 247 days for the second.

Going from “GlyGlyAsnLeuGly (GGNLG; printed: GlyGlyAsnLeuGly)” to “GlyLysAsnIleGly (GKNIG; printed: GlyLysAsnIleGly)”, the “First-Order Deamidation Halftimes of GlyXxxAsnYyyGly” value rises from 104 days to 313 days.

Going from “GlyGluAsnLysGly (GENKG; printed: GlyGluAsnLysGly)” to “GlyAmCysAsnAlaGly (CNAG; not fully specified (N-terminus); printed as GlyAmCysAsnAlaGly)”, the “First-Order Deamidation Halftimes of GlyXxxAsnYyyGly” value falls from 77.8 days to 21.5 days.

Going from “GlyThrAsnGlyGly (GTNGG; printed: GlyThrAsnGlyGly)” to “GlyHisAsnLysGly (GHNKG; printed: GlyHisAsnLysGly)”, the “First-Order Deamidation Halftimes of GlyXxxAsnYyyGly” value rises from 1.04 days to 50.2 days.

First: GlyAlaAsnHisGly (GANHG; printed: GlyAlaAsnHisGly)
Second: GlyPheAsnTrpGly (GFNWG; printed: GlyPheAsnTrpGly)
The “First-Order Deamidation Halftimes of GlyXxxAsnYyyGly” value of the first is lower: 9.3 days for the first, 102 days for the second.

Compared with “GlyTrpAsnTyrGly (GWNYG; printed: GlyTrpAsnTyrGly)”, “GlyPheAsnLeuGly (GFNLG; printed: GlyPheAsnLeuGly)” is higher in “First-Order Deamidation Halftimes of GlyXxxAsnYyyGly” value: 92.6 days for the first, 118 days for the second.

Going from “GlyAlaAsnAspGly (GANDG; printed: GlyAlaAsnAspGly)” to “GlyGlyAsnPheGly (GGNFG; printed: GlyGlyAsnPheGly)”, the “First-Order Deamidation Halftimes of GlyXxxAsnYyyGly” value rises from 31.9 days to 64.0 days.

Compared with GlyAspAsnAmCysGly, “GlyLysAsnCysGly (GKNCG; printed: GlyLysAsnCysGly)” is higher in “First-Order Deamidation Halftimes of GlyXxxAsnYyyGly” value: 45.8 days for the first, 49.0 days for the second.

Going from “GlyTyrAsnArgGly (GYNRG; printed: GlyTyrAsnArgGly)” to “GlyHisAsnPheGly (GHNFG; printed: GlyHisAsnPheGly)”, the “First-Order Deamidation Halftimes of GlyXxxAsnYyyGly” value rises from 56.9 days to 72.1 days.

Compared with “GlyAlaAsnCysGly (GANCG; printed: GlyAlaAsnCysGly)”, “GlyAmCysAsnHisGly (CNHG; not fully specified (N-terminus); printed as GlyAmCysAsnHisGly)” is lower in “First-Order Deamidation Halftimes of GlyXxxAsnYyyGly” value: 63.7 days for the first, 10.9 days for the second.

Going from “GlyTyrAsnTrpGly (GYNWG; printed: GlyTyrAsnTrpGly)” to “GlyAspAsnAlaGly (GDNAG; printed: GlyAspAsnAlaGly)”, the “First-Order Deamidation Halftimes of GlyXxxAsnYyyGly” value falls from 120 days to 24.0 days.

In the case of “GlyCysAsnLeuGly (GCNLG; printed: GlyCysAsnLeuGly)”, the “First-Order Deamidation Halftimes of GlyXxxAsnYyyGly” value is reported as 119 days.

Same assay, conditions: pH 7.4, 37.0 ° C., 0.15 M Tris HCl; Gln pentapeptides; 52 values measured, rest derived from surface fitting

Compared with “GlyIleGlnArgGly (GIQRG; printed: GlyIleGlnArgGly)”, “GlyPheGlnValGly (GFQVG; printed: GlyPheGlnValGly)” is lower in “First-Order Deamidation Halftimes of GlyXxxGlnYyyGly” value: 7200 days for the first, 7100 days for the second.

Compared with “GlyCysGlnArgGly (GCQRG; printed: GlyCysGlnArgGly)”, “GlyArgGlnLeuGly (GRQLG; printed: GlyArgGlnLeuGly)” is higher in “First-Order Deamidation Halftimes of GlyXxxGlnYyyGly” value: 5100 days for the first, 5400 days for the second.

Going from “GlyMetGlnIleGly (GMQIG; printed: GlyMetGlnIleGly)” to “GlyLeuGlnPheGly (GLQFG; printed: GlyLeuGlnPheGly)”, the “First-Order Deamidation Halftimes of GlyXxxGlnYyyGly” value rises from 5000 days to 8000 days.

Going from “GlyAlaGlnCysGly (GAQCG; printed: GlyAlaGlnCysGly)” to “GlyLysGlnSerGly (GKQSG; printed: GlyLysGlnSerGly)”, the “First-Order Deamidation Halftimes of GlyXxxGlnYyyGly” value rises from 1900 days to 4200 days.

Going from “GlySerGlnArgGly (GSQRG; printed: GlySerGlnArgGly)” to “GlyAspGlnThrGly (GDQTG; printed: GlyAspGlnThrGly)”, the “First-Order Deamidation Halftimes of GlyXxxGlnYyyGly” value falls from 7200 days to 5400 days.

Going from “GlyGluGlnThrGly (GEQTG; printed: GlyGluGlnThrGly)” to “GlyGluGlnHisGly (GEQHG; printed: GlyGluGlnHisGly)”, the “First-Order Deamidation Halftimes of GlyXxxGlnYyyGly” value falls from 5400 days to 2500 days.

First: GlyLeuGlnLysGly (GLQKG; printed: GlyLeuGlnLysGly)
Second: GlyGluGlnAspGly (GEQDG; printed: GlyGluGlnAspGly)
The “First-Order Deamidation Halftimes of GlyXxxGlnYyyGly” value of the first is lower: 6100 days for the first, 8300 days for the second.

Compared with “GlyTrpGlnIleGly (GWQIG; printed: GlyTrpGlnIleGly)”, “GlyThrGlnHisGly (GTQHG; printed: GlyThrGlnHisGly)” is lower in “First-Order Deamidation Halftimes of GlyXxxGlnYyyGly” value: 8000 days for the first, 4500 days for the second.

First: GlyProGlnPheGly (GPQFG; printed: GlyProGlnPheGly)
Second: GlyCysGlnAlaGly (GCQAG; printed: GlyCysGlnAlaGly)
The “First-Order Deamidation Halftimes of GlyXxxGlnYyyGly” value of the first is higher: 7300 days for the first, 4100 days for the second.

First: GlyAlaGlnIleGly (GAQIG; printed: GlyAlaGlnIleGly)
Second: GlyArgGlnThrGly (GRQTG; printed: GlyArgGlnThrGly)
The “First-Order Deamidation Halftimes of GlyXxxGlnYyyGly” value of the first is higher: 6200 days for the first, 4200 days for the second.

Going from “GlyHisGlnCysGly (GHQCG; printed: GlyHisGlnCysGly)” to “GlyAlaGlnLysGly (GAQKG; printed: GlyAlaGlnLysGly)”, the “First-Order Deamidation Halftimes of GlyXxxGlnYyyGly” value rises from 2200 days to 5700 days.

Going from “GlyGluGlnValGly (GEQVG; printed: GlyGluGlnValGly)” to “GlyThrGlnCysGly (GTQCG; printed: GlyThrGlnCysGly)”, the “First-Order Deamidation Halftimes of GlyXxxGlnYyyGly” value falls from 6400 days to 1000 days.

Going from “GlyGlyGlnAspGly (GGQDG; printed: GlyGlyGlnAspGly)” to “GlyProGlnHisGly (GPQHG; printed: GlyProGlnHisGly)”, the “First-Order Deamidation Halftimes of GlyXxxGlnYyyGly” value falls from 7600 days to 5200 days.

Going from “GlyMetGlnThrGly (GMQTG; printed: GlyMetGlnThrGly)” to “GlyArgGlnHisGly (GRQHG; printed: GlyArgGlnHisGly)”, the “First-Order Deamidation Halftimes of GlyXxxGlnYyyGly” value rises from 3800 days to 4900 days.

Compared with “GlyIleGlnProGly (GIQPG; printed: GlyIleGlnProGly)”, “GlyArgGlnProGly (GRQPG; printed: GlyArgGlnProGly)” is lower in “First-Order Deamidation Halftimes of GlyXxxGlnYyyGly” value: 10000 days for the first, 8100 days for the second.

Going from “GlyTyrGlnGlyGly (GYQGG; printed: GlyTyrGlnGlyGly)” to “GlyGluGlnGlyGly (GEQGG; printed: GlyGluGlnGlyGly)”, the “First-Order Deamidation Halftimes of GlyXxxGlnYyyGly” value falls from 850 days to 750 days.

First: GlyArgGlnAlaGly (GRQAG; printed: GlyArgGlnAlaGly)
Second: GlySerGlnMetGly (GSQMG; printed: GlySerGlnMetGly)
The “First-Order Deamidation Halftimes of GlyXxxGlnYyyGly” value of the first is lower: 4400 days for the first, 5100 days for the second.
